assay: yeast display, Sf9 membrane polyspecificity reagent, FACS + sequencing; frameworks hold sequencing errors
In short: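 Polyreactivity labels are assigned by the sorting gate from which each nanobody was recovered. The gates were low and high (top ~1%), set on anti-HA fluorescence for expression and streptavidin fluorescence for reagent binding. Before sorting, galactose-induced (36–48 hours) yeast display cells were stained for 1 hour at 4 °C with 10% biotinylated, detergent-solubilized Sf9 membrane reagent.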

Sequence	polyreactivity (PSR sort gate)
QVQLVESGVGLVQAGRRLRLSCAASGFIFAWNGMGWYRKAPGKERELVAAISWSGGSTYYAVSVKGRFTISRDNEKNTVYLLMNTLKPEETAVYYCYRSWGSRPGSRLEYWGQGTQVTVSS	high polyreactivity
QVQLVESGGGLVQAGGSLRLSCAASGFIFRYYAMAWYRQAPGKERELVASISRRGGSTYYADSVKGRFTISRDNSKNTFYLQMIRLIPEDTAVYYCAADVVNTVYYPGYDYLGQGTQVTVSS	high polyreactivity
QVQHVESGGGLVQAGGSHRLSCAASGRIFPWNTMGRYRQAPGKERELVAGITSGGSTNYADSVKGRFTISRDNAKNTVYLQMKSLKPEDTAVYYCNRDSVGYDYWGQGTQVTVSS	low polyreactivity
QVQLQESVVGLVQAGGSLRLSCAASGNIIPTDRMGWYRQAPGKELEFVATISHGGSTNYADSVKGRFTISRDNAKNTVYLQMNSLKPEDTAVYYCAVWSLGSWRHYYWGQGTQVTVSS	low polyreactivity
QVQLVESGGGLVQAGGSLRLSCAASGSTFRYYSMGWYRQAPGKERELVAAITRSGTSTYYADSVKGRFTISRDTAKNTVYLQMNSLQPEDTAFYYCNAVTPYSREYDYWGQGTQVTVSS	high polyreactivity
QVQLVESGGGLVQAGGSLRLSCAASGRIFLYYAMGWYRQAPGKERELVAGISTGGSTNYADSVKGRFTISRDNAKNTVYLQMNSLKPEDTAVYYCAVVDVEEHVGHWGQGTQVTVSS	low polyreactivity
QVQLVESGGGLVQAEGSLRLSCAASGRTFRPYALGWYRQAPGKERELVAVITSGGRTDYADSVKGRFTISRDNAKNTVYLQMNSLKPEDTAVYYCNAGAVYWGYSRGWYERDYWGQGTQVTVSS	high polyreactivity
QVQLVESGGGLVQAGGSLRLSCAPSGSTFLSYVMGWYRQAPGKERELVAAITGTGGRTYYADSVKGRFTISRDNAKNTVYLQMNCLKTEDTAVYYCTAYRNHGYDYWGQGTQVTVSS	high polyreactivity
QVQLVESGGGLVQAGGSLRLSSAASGRTFYRYVMGWYRQAPGKERELVADITRSGGSTYYADSVKGRFTISRDNAKNTVYLQMNSLKPEDTAVYYCAAEFLSSVHVRGMDYWGQGTQVTVSS	high polyreactivity
QVQLVESGRGLVQAGGSLRLSCGASGRTFGYYGMVGYRQATGKERELVASISRRGVSTYYADSVKGRFTISRDNAKNTVYLQMNSLKPEDTAVYYCAKDYWGYKYDYWGKGTQVTVSS	high polyreactivity
QVQLVESGGGLGQAGGSLRLSCAASGRIFRYNAMGWYRQAPGKERELVAAITGSGGSTYYADSVKGRFTISRDNAKNTVYLQMNSLKPEDTAVYYCNTYTYYSRMDYWGQGTQVTVSS	high polyreactivity
QVQLVESGGGLVQAGGSLRLSCAASGRTFTRYAMGWYRQAPGKERELVAAISGGGGSTYYADSVKGRFTISRDNAKNTVYLQMNSLKPEDTAVYYCAAGPWFYYWGQGTQVTVSS	low polyreactivity
QVQLVESGGGLVQAGGSLRLSCAASGRISRYNTLGWSSQAPGKERELVAVISWSGASTYYADSVKGRFTISRDNAKNTVYLQMNSLKPEDTAVYYCAAYYRWYNYDYWGQGTQVTVSS	high polyreactivity
QVQLVESGGGLVQAGGSLRLSCAASGITFIPNAMGWYRQAPGKERELVAAISISGGRTYYADSVKGRFTISRDNAKNPVYLQMNSLKPEDTAVYYCAADRADFFVIRTIDPYDYWGQGTQVTVSS	low polyreactivity
QVQLVESGVGLVQAGGSLRLSCAASGRICVKYAMGWYRQAPGKERELVAAISASGGGTYYADSVKGRFTISRDNAKNTVYLQMNSLKPEDTAVYYCNADFRYPGQVPSYVTYDYWGQGTQVTVSS	low polyreactivity
QVQLVESGGGLVQAGGSLRLSCDASGFTFIRNGMGWYRQAPGKERELVAAINSRGGNTYYADSVKGRFTISRDNAKNTVYLQMNSLKPEDTAVYYCNRVVQRWSTQYGYWGQGTQVTVSS	high polyreactivity

Sequence	polyreactivity (PSR sort gate)
QVQLVESGGGLVHAGGSLLLSCSASGSIFTVNAMGWYRQAPGKERELVAAISSGGSTHYADSVKGRFTISRDNAKNTVYLQMISLKPEDTAVYYCAAVYVPYYGYYTRYDYWGQGTQVTVSS	low polyreactivity
QVQLVESGGGVVQAGGSLRLSCAASGITYGRNTMGWYIHAPGKERELVAAIDSGGNTYADSVKGRFTISRDNAKNTVYLQMNSLKPEDTAVYYGAATFIQVVVNVQLYDYDYWGQGTQVNVSS	low polyreactivity
QVQLVESGGGLVQAGGSLRLSCAASGFTFNYYAMGWSRQAPGKERELVAAITWDGGTTYYADSVKGRFTISRDNAKNTVYLQMNSLKPEDSAVYYCAADYAWVSIYDNVPSAPGYDYWGQGTQVTVSS	low polyreactivity
QVQLVESGGGLVQAGGSLRLSCAASGRIFLWNAMGWYRQAPGKERELVAGIRWSTGSTYYADSVKGRFTISRDNAKNTVYLQKNSLKREDTAVYYCNARSFATGSKVPARGYWGQGTQVTVSS	high polyreactivity
QVQLVESGGGLVQAGGSLRLSCAASGSIFGPNPMGWYRQAPGKERELVAAISWTGGRTYYADSVKGRFTISRDNAKNTVYLQMNSLKPEDTAVYYCAAARYLSGGYEKYDYWGQGTQVTVST	low polyreactivity
QEQLQGSGGGLAQAGDSLRLSCAASGTIFSEYNNGLVSPGAGQRTRTCCRYWCWGNTYYADSAKGRFTTIRDNAKNTVYLQKNSLKPEDTAVYYCAFNRPYPSRHIYRGQGTQVTVSS	high polyreactivity
QVQLVESGGGLVQAGGSLRLSCAASGLIFESNAMGWYRQAPGKGRELVAAITTNGGSTYYADSVKGRFTISRDKGKNTVYLQMNSLKPEDTAVYYCAARFSYRSYDYWGQGTQVTVSS	low polyreactivity
QVQLVESGGGLVQAGGSLRLSCAASGLTFYSYAMGWYRQAPGKERELVAAITWSGGGTYYADSVKGRFTISRDNAKNTVYLQMNSLKPEDTAVYYCAALSYNGVRYYYWGQGTQVTVSS	high polyreactivity
QVQLVESGGGLVQAGGSLRLSCAASGRTFKHNAMGWYRQAPGKERELVAAINQSGSSTYYADSVKGRFTISRDNAKNTVYLQMNSLKPEDTAVYYCAAGVFFFTFDYWGQGTQVTVSS	low polyreactivity
QVQLVESGGGLVQAGGILRLICADSGSTFAQYAMGWYRPAPGKERELVAAISRLGASTYYAYSVKGRFTISRDIAKNTVYLQMNSLKPEDTVVYYCNAVRGEKMGYWGQGTQVTVSS	high polyreactivity
QDQLVESGGGLVQAGGSLRLSCAASGSIFSNNAMGWYRQAPGKERELVATITFSGGNTYYADSVKGRFTISRDNAKNTVYLQMNSLKPEDTAVYYCNADRYPVGTAREYDSWGQGTQVTVSS	low polyreactivity
QVQLVESGGGLVQAGGSLRLSCAASGRTFLPNAMGWYRQAPGKERELVAVITSGGSTNYADSVKGRFTISRDNAKNTVYLQMNSLKPEDTAVYYCASRRWSSSQGHWGKSAGYGYWGQGTQVTVSS	low polyreactivity
QVQLVESGGCLVQAGGSLRLSCAASAFIFVGNDMGLYRQAPGKEREFVAAISSGGTTNYADSVKGRFTISRDNAKNTVYLQMNSLKPEDTAVYYCGADYDYRQGYDSVHLDYWVQGTQVTVSS	low polyreactivity
QVQLVESGGGLDQAGGSLRLSCDASGFIFVRYAMGWSRQAPGKERELVAGINSGGSTSYADSVKGRFTISRDNAKNTVYLQMNSLKPEDSAVYYCNADVYVGYEYEYWGQGTQVTVSS	low polyreactivity
QVQLVESGGGLVQAGGSLRLSCAASGSTFAYYVMGWYRQAPGKERELVAAITSSGGRTYYADSVKGRFTISRDNAKNTVYLQMNSLKPEDTAVYYWAKVSQRRVDNSDYDYWGQGTQVTVSS	high polyreactivity
QVQLVESGGGLVQAGGSLRLSCAASGSIFGYYALGWSRPAPGKERELVASITSGDSTNYADSVKGRFTISRDNAKKTVYLQMNSQKPEDTAVYYCTTERGDYDEYDYWGQGTQVTVSS	low polyreactivity

Reference: the nanobody polyreactivity screen of Harvey et al. (2022)
